Patent US20230052312A1 (Genentech, published 2023)

Legend:
human PD-L1 [1] = target: T1, human PD-L1 (human, UniProt Q9NZQ7 19-290); test: flow cytometry on human blood cells (conclusion of Example 1)
T1 construct: whole, on cells; Endogenous PD-L1 on cells of human donors and patients; also called programmed death ligand 1

human PD-L1 [2] = target: T1, human PD-L1; test: flow cytometry on stimulated human whole blood, with or without Atezolizumab
Protocol: A Live Dead Kit (Invitrogen) was brought to room temperature. The kit included a near-IR fluorescent reactive dye and DMSO. 1× Pharm Lyse was made by mixing 10 mL of 10× Pharm Lyse (BD Biosciences) in 90 mL distilled water. After surface staining the cells in the test tubes, the tubes were vortexed and 3 mL of 1× Pharm Lyse was added to each test tube. The test tubes were vortexed again to enhance lysis of the cells in the presence of Pharm Lyse. The test tubes were then incubated for 15 minutes at room temperature in the dark. Following incubation, the test tubes were centrifuged for 5 minutes at 300 RCF/1500 to 1600 RPM. After centrifugation, the supernatant was aspirated as much as possible without disturbing the cell pellet. The bottom of each test tube was then flicked to break the cell pellet before washing the cells in 3 mL phosphate-buffered saline (PBS). The test tubes were centrifuged once more for 5 minutes at 300 RCF/1500 to 1600 RPM. The supernatant was then aspirated as before without disturbing the cell pellet. The bottom of each test tube was flicked to break the cell pellet and 1 mL of PBS was added to each test tube. A test tube was selected to perform a cell count using the BioRad TC20 cell counter. If the cell count was above 2 million live cells per mL of PBS in the tube, the concentration was adjusted to be 1 million live cells per mL and diluted accordingly using PBS. […]

T1 sequence (Q9NZQ7 19-290): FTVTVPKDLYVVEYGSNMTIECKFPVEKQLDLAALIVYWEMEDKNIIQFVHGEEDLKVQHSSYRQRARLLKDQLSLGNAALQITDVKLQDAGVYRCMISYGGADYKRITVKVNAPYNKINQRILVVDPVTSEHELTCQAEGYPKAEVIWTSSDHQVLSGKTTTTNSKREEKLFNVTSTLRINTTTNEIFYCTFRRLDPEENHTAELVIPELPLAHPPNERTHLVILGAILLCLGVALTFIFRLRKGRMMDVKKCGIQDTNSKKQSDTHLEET

binding result (human PD-L1 [1]) | binding result (human PD-L1 [2]) | Binder
binds | – | anti-PD-L1 14D3 antibody (antibody, V domains shown, also called clone 14D3; PD-L1 GNE) VH: QVQLQQSGPELVNPGASVKISCKASGYAFSTSWMNWVKQRPGKGLEWIGRIYPRDGDTYYNGKFKDKATLTADKSSNTAYMQLSSLTSEDSAVYFCTKNPGGYYFDYWGQGTTLTVSS VL: DIQMTQTTSSLSASLGDRVTINCRASQDIHTYLNWYQQKPDGTVKLLIFYTSRLHSGVPSRFSGSGSGTDYSLTISNLEQEDIATYFCQQVSSLPPWTFGGGTKVEIK
– | binds | anti-PD-L1 AF647 14D3 (antibody, V domains shown, also called anti-PD-L1 14D3 antibody labeled with AF647) VH: QVQLQQSGPELVNPGASVKISCKASGYAFSTSWMNWVKQRPGKGLEWIGRIYPRDGDTYYNGKFKDKATLTADKSSNTAYMQLSSLTSEDSAVYFCTKNPGGYYFDYWGQGTTLTVSS VL: DIQMTQTTSSLSASLGDRVTINCRASQDIHTYLNWYQQKPDGTVKLLIFYTSRLHSGVPSRFSGSGSGTDYSLTISNLEQEDIATYFCQQVSSLPPWTFGGGTKVEIK
– | binds | anti-PD-L1 PE 14D3 (antibody, V domains shown, also called anti-PD-L1 14D3 antibody labeled with PE) VH: QVQLQQSGPELVNPGASVKISCKASGYAFSTSWMNWVKQRPGKGLEWIGRIYPRDGDTYYNGKFKDKATLTADKSSNTAYMQLSSLTSEDSAVYFCTKNPGGYYFDYWGQGTTLTVSS VL: DIQMTQTTSSLSASLGDRVTINCRASQDIHTYLNWYQQKPDGTVKLLIFYTSRLHSGVPSRFSGSGSGTDYSLTISNLEQEDIATYFCQQVSSLPPWTFGGGTKVEIK
